The test deals with vimentin (rat (endogenous in glioma C6 cells)) (UniProt P31000). The experiment in a line: co-sedimentation.
Chain of vimentin (rat (endogenous in glioma C6 cells)) (P31000 whole entry): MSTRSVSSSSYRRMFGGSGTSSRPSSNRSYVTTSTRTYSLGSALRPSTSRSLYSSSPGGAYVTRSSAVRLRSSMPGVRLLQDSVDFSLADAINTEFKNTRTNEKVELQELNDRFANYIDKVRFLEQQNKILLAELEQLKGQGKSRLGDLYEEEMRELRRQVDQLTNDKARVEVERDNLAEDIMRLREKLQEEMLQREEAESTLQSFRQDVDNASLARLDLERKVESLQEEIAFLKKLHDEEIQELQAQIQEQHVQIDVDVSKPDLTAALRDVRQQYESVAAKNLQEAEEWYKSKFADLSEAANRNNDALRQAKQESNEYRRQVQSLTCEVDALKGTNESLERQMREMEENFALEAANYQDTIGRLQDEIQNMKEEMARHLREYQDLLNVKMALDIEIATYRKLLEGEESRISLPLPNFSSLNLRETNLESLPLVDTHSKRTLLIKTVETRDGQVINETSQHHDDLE

On to plectin (Mr 300,000), P30427 1-4687, for which the mass ratio of plectin to vimentin in the pelleted aggregates stood at 0.25, the mass ratio plectin/vimentin in the pellet P1 (round 1) amounted to 0.28, the mass ratio plectin/vimentin in the pellet P2 (round 2) stood at 0.23 and the percent of the total plectin recovered in the pellet of the mixture stood at 27%. For the same substance, the percent of the total vimentin recovered in the pellet of the mixture stood at 32%.

Source of the values: PMC2115112.
